By Kd is commonly meant the equilibrium constant for the complex coming apart.

The record followed here is patent US10494415B2, “Insulin-like growth factor 2 (IGF2) binding agents” (Cancer Research Technology Limited, priority 2015, dated 2019).

The experiment concerns the target IGF2 (Homo sapiens, UniProt P01344). Nature of the experiment: SPR (Biacore T200) of recombinant IGF2R domain 11 mutants on immobilised biotinylated IGF2. The class given is binding. The arrangement: purchased GroPep. As to conditions: for off rate / koff (figure legend) / on rate / kon (figure legend): FIG. 2, 3. From the text: Surface plasmon resonance (SPR) binding analysis of recombinant M6P/IGF2R domain 11 mutants interaction with IGF2. Kon indicates association (on) rate; koff, dissociation (off) rate; RU, response units. Binding to IGF2 assessed with BIAcore T200 using purified biotinylated IGF2 and IGF1 on a streptavidin biosensor chip. Recombinant proteins were expressed either in E. coli and/or P. pastoris. All the mutants in the FG and CD loops are on the domain 11^AB5 background for the AB loop unless otherwise stated. All experiments were carried out at 25° C. in HBS-EP buffer (pH 7.4), were repeated 2-5 times on two independent BIAcore chips. nd=not determined. Data for KD expressed as mean of each experiment, and means of kon and koff are shown.
Measurements were carried out at 25° C. in HBS-EP buffer (pH 7.4) (nd=not determined, np=no protein). Data for KD expressed as mean of each experiment, and means of kon and koff are shown.
Measurements were carried out at 25° C. in MES-EP buffer, 20 mM MES pH 6.5, 150 mM NaCl, 3 mM EDTA, and 0.005% (v/v) surfactant P20). Data for KD expressed as mean of each experiment, and means of kon and koff are shown.
Final kinetic analysis of mutants by SPR was conducted using a Biacore T200 biosensor at 25° C. in either HBS-EP (10 mM HEPES pH 7.4, 150 mM NaCl, 3 mM EDTA, and 0.005% (v/v) surfactant P20) or MES-EP (20 mM MES pH 6.5, 150 mM NaCl, 3 mM EDTA, and 0.005% (v/v) surfactant P20) at a flow-rate of 40 μL min^−1. […] For the analysis of the Fc-domain 11^AB5 interaction, approximately 50 RU of a biotinylated IGF2:biotinylated ubiquitin mixture (1:8 proportion) was immobilized on the CM5-streptavidin chip. This interaction was also analysed by immobilizing the Fc-domain 11^AB5 and Fc-domain 11^AB5-RHH (or Fc-domain 11^I1572A as control) by Human Antibody Capture (monoclonal mouse anti-human IgG antibody immobilised on a CM5 chip by amine coupling, GE Healthcare) with and without human IgG1 Fc fragment (Bethyl Laboratories, UK) in the control flow cell. Increasing concentrations of IGF2^1-67, proIGF2^1-104, proIGF2^1-156 and IGF1 ranging from 0.125 to 32 nM were injected. T200 BiaEvaluation software (GE Healthcare) was used to fit the resulting curves according to a 1:1 binding model. Steady state affinities were determined using the kinetic data, taking the response average at 5 seconds before injection end and for 5 seconds average. Thermodynamic data was performed across the temperature range of 10° C. to 30° C., van't Hoff and Erying plots generated and ΔH, −TΔS and ΔG values determined as previously described.
A general note: SPR reads the build-up and loss of mass on a sensor chip optically.

Changes are numbered by the printed parent chain. Numbers in names are those of the source.

Chain of IGF2 (P01344 25-91): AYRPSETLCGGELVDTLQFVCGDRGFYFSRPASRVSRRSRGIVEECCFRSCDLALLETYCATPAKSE

B1: K1631W: domain 11 HI loop mutant K1631W, probably AB5 background (protein)
chain: MKSNEHDDCQVTNPSTGHLFDLSSLSGRAGFTAAYAKGWGVYMSICGENENCPPGVGACFGQTRISVGKANKRLRYVDQVLQLVYKDGSPCPSKSGLSYKSVISFVCRPEAGPTNRPMLISLDWQTCTLFFSWHTPLACEQATECSV
Take B1: under “Table 1, 25° C., HBS-EP pH 7.4”, the Kinetics koff was determined as 0.0034 s⁻¹ and the Kinetics kon amounted to 1.18e+06 M⁻¹ s⁻¹. Further, the Kd (pH 7.4) came out at 3.23 nM.

B2: AB3 Q1569R P1597H S1602H G1603K: domain 11 AB3 + Q1569R, P1597H, S1602H, G1603K (protein)
chain: B1 chain with A36S, G38S, W39G, G40V, Q62R, P90H, S95H, G96K, W124K
As for B2, the “off rate / koff (figure legend)” value was 0.0108 s⁻¹ and the “on rate / kon (figure legend)” value stood at 1.75e+07 M⁻¹ s⁻¹. For the same molecule, under “Table 3, 25° C., HBS-EP pH 7.4”, the Kinetics koff came to 0.0108 s⁻¹ and the Kinetics kon came to 1.75e+07 M⁻¹ s⁻¹. Where the note is “Table 4, MES-EP pH 6.5”, the Kinetics koff amounted to 0.0087 s⁻¹ and the Kinetics kon came to 2.43e+07 M⁻¹ s⁻¹.

B3: K1601A: domain 11 AB5 background + FG loop K1601A (protein)
chain: B1 chain with K94A, W124K
Consider B3, for which, for the setting “Table 1, 25° C., HBS-EP pH 7.4”, the Kinetics koff was 0.0220 s⁻¹ and the Kinetics kon was determined as 3.26e+06 M⁻¹ s⁻¹.

B4: AB5 Q1569R P1597H S1602H: domain 11 AB5 + Q1569R, P1597H, S1602H (AB5-RHH) (protein)
chain: B1 chain with Q62R, P90H, S95H, W124K
As for B4, the “off rate / koff (figure legend)” value came to 0.0038 s⁻¹ and the “on rate / kon (figure legend)” value was 5.9e+06 M⁻¹ s⁻¹. Besides, for the setting “Table 3, 25° C., HBS-EP pH 7.4”, the Kinetics koff was found to be 0.0038 s⁻¹ and the Kinetics kon was 5.9e+06 M⁻¹ s⁻¹. Besides, where the note is “Table 4, MES-EP pH 6.5”, the Kinetics koff was determined as 0.0030 s⁻¹ and the Kinetics kon worked out at 4.41e+06 M⁻¹ s⁻¹.

B5: K1631E: domain 11 HI loop mutant K1631E, probably AB5 background (protein)
chain: B1 chain with W124E
As to B5, the Kinetics koff (Table 1, 25° C., HBS-EP pH 7.4) is above 0.1 s⁻¹.

B6: Q1632K: domain 11 HI loop mutant Q1632K, probably AB5 background (protein)
chain: B1 chain with W124K, Q125K
For B6, where the note is “Table 1, 25° C., HBS-EP pH 7.4”, the Kinetics koff came out at 0.0212 s⁻¹ and the Kinetics kon came to 1.96e+06 M⁻¹ s⁻¹.

B7: S1602H: domain 11 AB5 background + FG loop S1602H (protein)
chain: B1 chain with S95H, W124K
Take B7: where the note is “Table 1, 25° C., HBS-EP pH 7.4”, the Kinetics koff is 0.0112 s⁻¹ and the Kinetics kon was found to be 3.61e+06 M⁻¹ s⁻¹.

B8: S1600Y: domain 11 AB5 background + FG loop S1600Y (protein)
chain: B1 chain with S93Y, W124K
In the case of B8, the Kinetics koff (Table 1, 25° C., HBS-EP pH 7.4) was above 0.2 s⁻¹.

B9: S1602Q: domain 11 AB5 background + FG loop S1602Q (protein)
chain: B1 chain with S95Q, W124K
In the case of B9, where the note is “Table 1, 25° C., HBS-EP pH 7.4”, the Kinetics koff came to 0.0191 s⁻¹ and the Kinetics kon is 5.88e+06 M⁻¹ s⁻¹.

B10: P1599A: domain 11 FG loop mutant P1599A, AB5 background unless otherwise stated (protein)
chain: B1 chain with P92A, W124K
In the case of B10, the Kinetics koff (Table 1, 25° C., HBS-EP pH 7.4) is above 0.1 s⁻¹.

B11: S1600A: domain 11 AB5 background + FG loop S1600A (protein)
chain: B1 chain with S93A, W124K
Regarding B11, under “Table 1, 25° C., HBS-EP pH 7.4”, the Kinetics koff stood at 0.2126 s⁻¹ and the Kinetics kon was determined as 2.39e+06 M⁻¹ s⁻¹.

B12: L1604A: domain 11 AB5 background + FG loop L1604A (protein)
chain: B1 chain with L97A, W124K
For the molecule B12, for the setting “Table 1, 25° C., HBS-EP pH 7.4”, the Kinetics koff was determined as 0.0397 s⁻¹ and the Kinetics kon was 790000 M⁻¹ s⁻¹.

B13: P1599G: domain 11 FG loop mutant P1599G, AB5 background unless otherwise stated (protein)
chain: B1 chain with P92G, W124K
Turning to B13, the Kinetics koff (Table 1, 25° C., HBS-EP pH 7.4) was above 0.2 s⁻¹.

B14: S1602A: domain 11 AB5 background + FG loop S1602A (protein)
chain: B1 chain with S95A, W124K
For B14, under “Table 1, 25° C., HBS-EP pH 7.4”, the Kinetics koff came to 0.0250 s⁻¹ and the Kinetics kon turned out to be 1.57e+06 M⁻¹ s⁻¹.

B15: G1603K: domain 11 AB5 background + FG loop G1603K (protein)
chain: B1 chain with G96K, W124K
With B15, for the setting “Table 1, 25° C., HBS-EP pH 7.4”, the Kinetics koff came to 0.0121 s⁻¹ and the Kinetics kon came to 4.66e+06 M⁻¹ s⁻¹.

B16: P1599V: domain 11 FG loop mutant P1599V, AB5 background unless otherwise stated (protein)
chain: B1 chain with P92V, W124K
With B16, where the note is “Table 1, 25° C., HBS-EP pH 7.4”, the Kinetics koff is above 0.1 s⁻¹.

B17: K1601R: domain 11 AB5 background + FG loop K1601R (protein)
chain: B1 chain with K94R, W124K
Consider B17, for which, where the note is “Table 1, 25° C., HBS-EP pH 7.4”, the Kinetics koff amounted to 0.0251 s⁻¹ and the Kinetics kon amounted to 5.28e+06 M⁻¹ s⁻¹.

B18: S1600N: domain 11 AB5 background + FG loop S1600N (protein)
chain: B1 chain with S93N, W124K
Take B18: where the note is “Table 1, 25° C., HBS-EP pH 7.4”, the Kinetics koff was 0.0910 s⁻¹ and the Kinetics kon stood at 3.95e+06 M⁻¹ s⁻¹.

B19: S1600L: domain 11 AB5 background + FG loop S1600L (protein)
chain: B1 chain with S93L, W124K
As for B19, the Kinetics koff (Table 1, 25° C., HBS-EP pH 7.4) is above 0.2 s⁻¹.

B20: S1602N: domain 11 AB5 background + FG loop S1602N (protein)
chain: B1 chain with S95N, W124K
For the molecule B20, for the setting “Table 1, 25° C., HBS-EP pH 7.4”, the Kinetics koff came out at 0.0112 s⁻¹ and the Kinetics kon was 2.38e+06 M⁻¹ s⁻¹.

B21: S1600V: domain 11 AB5 background + FG loop S1600V (protein)
chain: B1 chain with S93V, W124K
On to B21, for which the Kinetics koff (Table 1, 25° C., HBS-EP pH 7.4) is above 0.2 s⁻¹.

B22: Q1632A: domain 11 HI loop mutant Q1632A, probably AB5 background (protein)
chain: B1 chain with W124K, Q125A
B22: under “Table 1, 25° C., HBS-EP pH 7.4”, the Kinetics koff is 0.0167 s⁻¹ and the Kinetics kon is 4.5e+06 M⁻¹ s⁻¹.

B23: K1631R: domain 11 HI loop mutant K1631R, probably AB5 background (protein)
chain: B1 chain with W124R
For B23, under “Table 1, 25° C., HBS-EP pH 7.4”, the Kinetics koff was determined as 0.0867 s⁻¹ and the Kinetics kon was 7.18e+06 M⁻¹ s⁻¹.

B24: G1603A: domain 11 AB5 background + FG loop G1603A (protein)
chain: B1 chain with G96A, W124K
Consider B24, for which, where the note is “Table 1, 25° C., HBS-EP pH 7.4”, the Kinetics koff is 0.0183 s⁻¹ and the Kinetics kon was 2.14e+06 M⁻¹ s⁻¹.
